Measured values reported in patent US20210388087A1 (Chugai, published 2021).

B1: H183/L072 VH G52cF (antibody, name in Kabat numbering, V domains shown)
VH: QVQLVESGGGLVQPGRSLRLSCAASGFTFSNAWMHWVRQAPGKGLEWVAQIKDKFNAYAAYYAPSVKGRFTISRDDSKNSIYLQMNSLKTEDTAVYYCHYVHYASASTVLPAFGVDAWGQGTTVTVSS
VL: DIVMTQSPLSLPVTPGEPASISCQASQELVHMNRNTYLHWYQQKPGQAPRLLIYKVSNRFPGVPDRFSGSGSGTDFTLKISRVEAEDVGVYYCAQGTSVPFTFGQGTKLEIK
B2: H183/L072 VH G65I (antibody, name in Kabat numbering, V domains shown)
VH: QVQLVESGGGLVQPGRSLRLSCAASGFTFSNAWMHWVRQAPGKGLEWVAQIKDKGNAYAAYYAPSVKIRFTISRDDSKNSIYLQMNSLKTEDTAVYYCHYVHYASASTVLPAFGVDAWGQGTTVTVSS
VL: DIVMTQSPLSLPVTPGEPASISCQASQELVHMNRNTYLHWYQQKPGQAPRLLIYKVSNRFPGVPDRFSGSGSGTDFTLKISRVEAEDVGVYYCAQGTSVPFTFGQGTKLEIK
B3: H183/L072 VH G52cV (antibody, name in Kabat numbering, V domains shown)
VH: QVQLVESGGGLVQPGRSLRLSCAASGFTFSNAWMHWVRQAPGKGLEWVAQIKDKVNAYAAYYAPSVKGRFTISRDDSKNSIYLQMNSLKTEDTAVYYCHYVHYASASTVLPAFGVDAWGQGTTVTVSS
VL: DIVMTQSPLSLPVTPGEPASISCQASQELVHMNRNTYLHWYQQKPGQAPRLLIYKVSNRFPGVPDRFSGSGSGTDFTLKISRVEAEDVGVYYCAQGTSVPFTFGQGTKLEIK
B4: H183/L072 VH G52cQ (antibody, name in Kabat numbering, V domains shown)
VH: QVQLVESGGGLVQPGRSLRLSCAASGFTFSNAWMHWVRQAPGKGLEWVAQIKDKQNAYAAYYAPSVKGRFTISRDDSKNSIYLQMNSLKTEDTAVYYCHYVHYASASTVLPAFGVDAWGQGTTVTVSS
VL: DIVMTQSPLSLPVTPGEPASISCQASQELVHMNRNTYLHWYQQKPGQAPRLLIYKVSNRFPGVPDRFSGSGSGTDFTLKISRVEAEDVGVYYCAQGTSVPFTFGQGTKLEIK
B5: H183/L072 VH G52cY (antibody, name in Kabat numbering, V domains shown)
VH: QVQLVESGGGLVQPGRSLRLSCAASGFTFSNAWMHWVRQAPGKGLEWVAQIKDKYNAYAAYYAPSVKGRFTISRDDSKNSIYLQMNSLKTEDTAVYYCHYVHYASASTVLPAFGVDAWGQGTTVTVSS
VL: DIVMTQSPLSLPVTPGEPASISCQASQELVHMNRNTYLHWYQQKPGQAPRLLIYKVSNRFPGVPDRFSGSGSGTDFTLKISRVEAEDVGVYYCAQGTSVPFTFGQGTKLEIK
B6: H183/L072 VH G65M (antibody, name in Kabat numbering, V domains shown)
VH: QVQLVESGGGLVQPGRSLRLSCAASGFTFSNAWMHWVRQAPGKGLEWVAQIKDKGNAYAAYYAPSVKMRFTISRDDSKNSIYLQMNSLKTEDTAVYYCHYVHYASASTVLPAFGVDAWGQGTTVTVSS
VL: DIVMTQSPLSLPVTPGEPASISCQASQELVHMNRNTYLHWYQQKPGQAPRLLIYKVSNRFPGVPDRFSGSGSGTDFTLKISRVEAEDVGVYYCAQGTSVPFTFGQGTKLEIK
B7: H183/L072 VH G52cL (antibody, name in Kabat numbering, V domains shown)
VH: QVQLVESGGGLVQPGRSLRLSCAASGFTFSNAWMHWVRQAPGKGLEWVAQIKDKLNAYAAYYAPSVKGRFTISRDDSKNSIYLQMNSLKTEDTAVYYCHYVHYASASTVLPAFGVDAWGQGTTVTVSS
VL: DIVMTQSPLSLPVTPGEPASISCQASQELVHMNRNTYLHWYQQKPGQAPRLLIYKVSNRFPGVPDRFSGSGSGTDFTLKISRVEAEDVGVYYCAQGTSVPFTFGQGTKLEIK
B8: H183/L072 VH G52cK (antibody, name in Kabat numbering, V domains shown)
VH: QVQLVESGGGLVQPGRSLRLSCAASGFTFSNAWMHWVRQAPGKGLEWVAQIKDKKNAYAAYYAPSVKGRFTISRDDSKNSIYLQMNSLKTEDTAVYYCHYVHYASASTVLPAFGVDAWGQGTTVTVSS
VL: DIVMTQSPLSLPVTPGEPASISCQASQELVHMNRNTYLHWYQQKPGQAPRLLIYKVSNRFPGVPDRFSGSGSGTDFTLKISRVEAEDVGVYYCAQGTSVPFTFGQGTKLEIK
B9: H183/L072 VH G52cH (antibody, name in Kabat numbering, V domains shown)
VH: QVQLVESGGGLVQPGRSLRLSCAASGFTFSNAWMHWVRQAPGKGLEWVAQIKDKHNAYAAYYAPSVKGRFTISRDDSKNSIYLQMNSLKTEDTAVYYCHYVHYASASTVLPAFGVDAWGQGTTVTVSS
VL: DIVMTQSPLSLPVTPGEPASISCQASQELVHMNRNTYLHWYQQKPGQAPRLLIYKVSNRFPGVPDRFSGSGSGTDFTLKISRVEAEDVGVYYCAQGTSVPFTFGQGTKLEIK
B10: H183/L072 VH G52cS (antibody, name in Kabat numbering, V domains shown)
VH: QVQLVESGGGLVQPGRSLRLSCAASGFTFSNAWMHWVRQAPGKGLEWVAQIKDKSNAYAAYYAPSVKGRFTISRDDSKNSIYLQMNSLKTEDTAVYYCHYVHYASASTVLPAFGVDAWGQGTTVTVSS
VL: DIVMTQSPLSLPVTPGEPASISCQASQELVHMNRNTYLHWYQQKPGQAPRLLIYKVSNRFPGVPDRFSGSGSGTDFTLKISRVEAEDVGVYYCAQGTSVPFTFGQGTKLEIK
B11: H183/L072 VH G52cI (antibody, name in Kabat numbering, V domains shown)
VH: QVQLVESGGGLVQPGRSLRLSCAASGFTFSNAWMHWVRQAPGKGLEWVAQIKDKINAYAAYYAPSVKGRFTISRDDSKNSIYLQMNSLKTEDTAVYYCHYVHYASASTVLPAFGVDAWGQGTTVTVSS
VL: DIVMTQSPLSLPVTPGEPASISCQASQELVHMNRNTYLHWYQQKPGQAPRLLIYKVSNRFPGVPDRFSGSGSGTDFTLKISRVEAEDVGVYYCAQGTSVPFTFGQGTKLEIK
B12: H183/L072 VH G52cT (antibody, name in Kabat numbering, V domains shown)
VH: QVQLVESGGGLVQPGRSLRLSCAASGFTFSNAWMHWVRQAPGKGLEWVAQIKDKTNAYAAYYAPSVKGRFTISRDDSKNSIYLQMNSLKTEDTAVYYCHYVHYASASTVLPAFGVDAWGQGTTVTVSS
VL: DIVMTQSPLSLPVTPGEPASISCQASQELVHMNRNTYLHWYQQKPGQAPRLLIYKVSNRFPGVPDRFSGSGSGTDFTLKISRVEAEDVGVYYCAQGTSVPFTFGQGTKLEIK
B13: H183/L072 VH G52cW (antibody, name in Kabat numbering, V domains shown)
VH: QVQLVESGGGLVQPGRSLRLSCAASGFTFSNAWMHWVRQAPGKGLEWVAQIKDKWNAYAAYYAPSVKGRFTISRDDSKNSIYLQMNSLKTEDTAVYYCHYVHYASASTVLPAFGVDAWGQGTTVTVSS
VL: DIVMTQSPLSLPVTPGEPASISCQASQELVHMNRNTYLHWYQQKPGQAPRLLIYKVSNRFPGVPDRFSGSGSGTDFTLKISRVEAEDVGVYYCAQGTSVPFTFGQGTKLEIK
B14: H183/L072 VH G52cP (antibody, name in Kabat numbering, V domains shown)
VH: QVQLVESGGGLVQPGRSLRLSCAASGFTFSNAWMHWVRQAPGKGLEWVAQIKDKPNAYAAYYAPSVKGRFTISRDDSKNSIYLQMNSLKTEDTAVYYCHYVHYASASTVLPAFGVDAWGQGTTVTVSS
VL: DIVMTQSPLSLPVTPGEPASISCQASQELVHMNRNTYLHWYQQKPGQAPRLLIYKVSNRFPGVPDRFSGSGSGTDFTLKISRVEAEDVGVYYCAQGTSVPFTFGQGTKLEIK
B15: H183/L072 VH G52cN (antibody, name in Kabat numbering, V domains shown)
VH: QVQLVESGGGLVQPGRSLRLSCAASGFTFSNAWMHWVRQAPGKGLEWVAQIKDKNNAYAAYYAPSVKGRFTISRDDSKNSIYLQMNSLKTEDTAVYYCHYVHYASASTVLPAFGVDAWGQGTTVTVSS
VL: DIVMTQSPLSLPVTPGEPASISCQASQELVHMNRNTYLHWYQQKPGQAPRLLIYKVSNRFPGVPDRFSGSGSGTDFTLKISRVEAEDVGVYYCAQGTSVPFTFGQGTKLEIK
B16: H183/L072 VH G65P (antibody, name in Kabat numbering, V domains shown)
VH: QVQLVESGGGLVQPGRSLRLSCAASGFTFSNAWMHWVRQAPGKGLEWVAQIKDKGNAYAAYYAPSVKPRFTISRDDSKNSIYLQMNSLKTEDTAVYYCHYVHYASASTVLPAFGVDAWGQGTTVTVSS
VL: DIVMTQSPLSLPVTPGEPASISCQASQELVHMNRNTYLHWYQQKPGQAPRLLIYKVSNRFPGVPDRFSGSGSGTDFTLKISRVEAEDVGVYYCAQGTSVPFTFGQGTKLEIK
B17: H183/L072 VH G52cR (antibody, name in Kabat numbering, V domains shown)
VH: QVQLVESGGGLVQPGRSLRLSCAASGFTFSNAWMHWVRQAPGKGLEWVAQIKDKRNAYAAYYAPSVKGRFTISRDDSKNSIYLQMNSLKTEDTAVYYCHYVHYASASTVLPAFGVDAWGQGTTVTVSS
VL: DIVMTQSPLSLPVTPGEPASISCQASQELVHMNRNTYLHWYQQKPGQAPRLLIYKVSNRFPGVPDRFSGSGSGTDFTLKISRVEAEDVGVYYCAQGTSVPFTFGQGTKLEIK
B18: H183/L072 VH G65A (antibody, name in Kabat numbering, V domains shown)
VH: QVQLVESGGGLVQPGRSLRLSCAASGFTFSNAWMHWVRQAPGKGLEWVAQIKDKGNAYAAYYAPSVKARFTISRDDSKNSIYLQMNSLKTEDTAVYYCHYVHYASASTVLPAFGVDAWGQGTTVTVSS
VL: DIVMTQSPLSLPVTPGEPASISCQASQELVHMNRNTYLHWYQQKPGQAPRLLIYKVSNRFPGVPDRFSGSGSGTDFTLKISRVEAEDVGVYYCAQGTSVPFTFGQGTKLEIK
B19: H183/L072 VH G65L (antibody, name in Kabat numbering, V domains shown)
VH: QVQLVESGGGLVQPGRSLRLSCAASGFTFSNAWMHWVRQAPGKGLEWVAQIKDKGNAYAAYYAPSVKLRFTISRDDSKNSIYLQMNSLKTEDTAVYYCHYVHYASASTVLPAFGVDAWGQGTTVTVSS
VL: DIVMTQSPLSLPVTPGEPASISCQASQELVHMNRNTYLHWYQQKPGQAPRLLIYKVSNRFPGVPDRFSGSGSGTDFTLKISRVEAEDVGVYYCAQGTSVPFTFGQGTKLEIK
B20: H183/L072 VH G52cM (antibody, name in Kabat numbering, V domains shown)
VH: QVQLVESGGGLVQPGRSLRLSCAASGFTFSNAWMHWVRQAPGKGLEWVAQIKDKMNAYAAYYAPSVKGRFTISRDDSKNSIYLQMNSLKTEDTAVYYCHYVHYASASTVLPAFGVDAWGQGTTVTVSS
VL: DIVMTQSPLSLPVTPGEPASISCQASQELVHMNRNTYLHWYQQKPGQAPRLLIYKVSNRFPGVPDRFSGSGSGTDFTLKISRVEAEDVGVYYCAQGTSVPFTFGQGTKLEIK

What follows are binders tested against T1, Human CD137 ECD (human) (assay: single mutant vs template dBBDu183H).
T1 construct: also called 4-1BB
T1 sequence (chain, as listed by the source limits assumed): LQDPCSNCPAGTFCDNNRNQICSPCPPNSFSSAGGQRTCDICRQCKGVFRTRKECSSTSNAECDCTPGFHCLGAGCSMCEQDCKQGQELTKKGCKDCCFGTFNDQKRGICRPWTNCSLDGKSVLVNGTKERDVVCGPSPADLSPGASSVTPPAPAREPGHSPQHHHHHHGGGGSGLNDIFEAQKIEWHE

Point of comparison: B2, “fold change of affinity” value 1.3 fold. Against it:
- B1 — higher, 1.7 fold
- B3 — lower, 0.7 fold
- B4 — lower, 0.7 fold
- B5 — higher, 2 fold
- B6 — lower, 1.2 fold
- B7 — lower, 0.8 fold
- B8 — lower, 0.2 fold
- B9 — the same, 1.3 fold
- B10 — the same, 1.3 fold
- B11 — lower, 0.7 fold
- B12 — lower, 1 fold
- B13 — higher, 2 fold
- B14 — lower, 0.4 fold
- B15 — lower, 0.9 fold
- B16 — the same, 1.3 fold
- B17 — lower, 0.2 fold
- B18 — lower, 1.2 fold
- B19 — the same, 1.3 fold
- B20 — lower, 0.6 fold
